Data reported in patent publication US20250163127A1 (published 2025).
Substitutions are numbered along the chain they refer to. Values belong to the binder of their own block, whether it stands above or below them.

Experiments:
human PD-1 [1] = molecular target: T1, human PD-1 (human, UniProt Q15116); experiment: flow cytometry, CHO/PD-1 cells, 100 nM, anti-Flag
human CTLA-4 = human CTLA-4 (human); experiment: flow cytometry, CHO/CTLA-4 cells, 100 nM, anti-Flag
human CD28 [2] = molecular target: T2, human CD28 (human, UniProt P10747); experiment: flow cytometry, Jurkat cells (endogenous CD28), 100 nM, anti-Flag
human CD80 = molecular target: T3, human CD80 (human); experiment: cell-based or functional assay
T3 chain: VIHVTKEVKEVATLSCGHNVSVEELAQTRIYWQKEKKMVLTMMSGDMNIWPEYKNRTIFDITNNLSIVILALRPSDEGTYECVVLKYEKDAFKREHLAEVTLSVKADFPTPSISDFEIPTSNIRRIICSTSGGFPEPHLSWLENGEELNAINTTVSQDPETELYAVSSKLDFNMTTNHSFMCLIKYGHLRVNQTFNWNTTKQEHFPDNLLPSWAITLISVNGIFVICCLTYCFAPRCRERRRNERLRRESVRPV

PD-1 = PD-1 (human, UniProt Q15116); experiment: cell-based or functional assay
CD2 = CD2 (Homo sapiens (Human), UniProt P06729); experiment: flow cytometry, CHO-CD2 cells
human TIGIT = molecular target: T4, human TIGIT (human, UniProt Q495A1); experiment: flow cytometry, Jurkat/IL-2/TIGIT cells
T4 sequence: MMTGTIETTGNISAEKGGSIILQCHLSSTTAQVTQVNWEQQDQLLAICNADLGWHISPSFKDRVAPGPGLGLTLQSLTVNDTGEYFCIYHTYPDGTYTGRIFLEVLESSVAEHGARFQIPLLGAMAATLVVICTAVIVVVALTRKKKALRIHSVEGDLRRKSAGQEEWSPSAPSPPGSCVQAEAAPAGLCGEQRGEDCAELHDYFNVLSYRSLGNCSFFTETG

human CD28 [3] = molecular target: T2, human CD28; experiment: flow cytometry, Expi-CD28 cells
human PD-1 [4] = molecular target: T1, human PD-1; experiment: flow cytometry, CHO/PD-1 cells, 100 nM, anti-FLAG-PE
CD80 = molecular target: T5, CD80 (human); experiment: flow cytometry, CHO-CD80 cells
T5 chain: T3 chain

human PD-1 [5] = molecular target: T1, human PD-1; experiment: flow cytometry, Jurkat/IL-2/PD-1 cells

Chain of human CTLA-4 (human) (chain, as listed by the source): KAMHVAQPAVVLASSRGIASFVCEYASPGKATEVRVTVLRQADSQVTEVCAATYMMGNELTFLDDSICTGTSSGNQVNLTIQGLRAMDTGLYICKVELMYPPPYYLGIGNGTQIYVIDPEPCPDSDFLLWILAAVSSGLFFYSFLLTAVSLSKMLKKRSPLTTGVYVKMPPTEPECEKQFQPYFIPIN

MFI (human PD-1 [1]): 20000
MFI (human CTLA-4): 79.3
MFI (human CD28 [2]): 89.2
B1: PD-L2 1417-CD80 2616 (other)
chain: LFTVTVPKELYIIEQGSNVTLECNFDTGSHVNLGAITASLQKVENDASPHRERATLLEEQLPLGRALFHIPQVQVRDEGQYRCIIIYGDAWDYKYLTLKVKAGSGGSGGGGSGGGGSVIHVTKEVKEVATLSCGHNVSLEELAQTRIYWQKGKKMVLTMMSGDMNIWPEYKNRTIFDITNNLSIVILDPRPSDEGTYECVVLKYEKDAFKREHLAEVDYKDDDDKHHHHHH

MFI (human PD-1 [1]): 13700
MFI (human CTLA-4): 85
MFI (human CD28 [2]): 94.2
B2: PD-L2 1417-CD80 2617 (other)
chain: B1 chain with L139V, K171E

% CD25 Hi FoxP3 + (human CD80): 19.1 % at 100 nM
% CD25 Hi FoxP3 + (PD-1): 19.1 % at 100 nM
B3: PD-L1 303-CTLA-4 3495-Fc (Fc fusion)
chain: FTVTVPKDLYVVEYGSNMTIECKFPVEKQLDLAALIVYWEMEGKDIIQFVHGEEDQKAQHSSYRQRARLLKDQLSLGNAALQITDVKLQDAGVYRCMISYGGGADYKRITVKVNAGSGGSGGGGSGGGGSKAMHVAQPAVVLASSRGIASFVCEYASPGKATEVRVTVLRQADSQVTEVCAATYMMGNELTFLDDSICTGTSSGNQVNLTIQGLRAMDTGLYICKVELMYPPPYYLGIGNGTQIYVIDPEPSPDSDQGGGGSGSGGGGSEPKSSDKTHTCPPCPAPEAEGAPSVFLFPPKPKDTLMISRTPEVTCVVVDVSHEDPEVKFNWYVDGVEVHNAKTKPREEQYNSTYRVVSVLTVLHQDWLNGKEYKCKVSNKALPAPIEKTISKAKGQPREPQVYTLPPSRDELTKNQVSLTCLVKGFYPSDIAVEWESNGQPENNYKTTPPVLDSDGSFFLYSKLTVDKSRWQQGNVFSCSVMHEALHNHYTQKSLSLSPG

EC50 (CD2): 0.935 nM
EC50 (human TIGIT): 1 nM
B4: CD58 3650-CD155 665-Fc (Fc fusion)
chain: SQQIYGVVYGNVTFHVPSNVPLKEVLWKKQKDKVAELENSEFRAFSSFKNRVYLDTVSGSLTIYNLTSSDEDEYEMESPNITDTMKFFLYVLESGGGGSGGGGSGGGGSWPPPGTGDVVVQAPTQVSGFLGDSVTLPCYLQVPNMEVTHVSQLTWARHGESGSMAVFHQTQGPWYAESKRLEFVAARLGAELRNASLRVFGLRAEDEGNYTCQFVTFPQRSRSVDIWLRVLGSGGGGSEPKSSDKTHTCPPCPAPEAEGAPSVFLFPPKPKDTLMISRTPEVTCVVVDVSHEDPEVKFNWYVDGVEVHNAKTKPREEQYNSTYRVVSVLTVLHQDWLNGKEYKCKVSNKALPAPIEKTISKAKGQPREPQVYTLPPSRDELTKNQVSLTCLVKGFYPSDIAVEWESNGQPENNYKTTPPVLDSDGSFFLYSKLTVDKSRWQQGNVFSCSVMHEALHNHYTQKSLSLSPG

% CD25 Hi FoxP3 + (human CD80): 44.2 % at 100 nM
% CD25 Hi FoxP3 + (PD-1): 44.2 % at 100 nM
B5: PD-L1 303-CTLA-4 3037-Fc (SEQ ID NO 3523) (Fc fusion)
chain: FTVTVPKDLYVVEYGSNMTIECKFPVEKQLDLAALIVYWEMEGKDIIQFVHGEEDQKAQHSSYRQRARLLKDQLSLGNAALQITDVKLQDAGVYRCMISYGGGADYKRITVKVNAGSGGSGGGGSGGGGSKAMHVAQPAVVLASSRGIASFVCEYASPWKATEVRVTVLRQADSQVTEVCAATYMMGSELTFPDDSICTGTSSGNQVNLTIRGLRAMDTGLYICKVEQMYPPPYLLGIGNGTQIYVIDPEPCPDSDGGGGSGSGGGGSEPKSSDKTHTCPPCPAPEAEGAPSVFLFPPKPKDTLMISRTPEVTCVVVDVSHEDPEVKFNWYVDGVEVHNAKTKPREEQYNSTYRVVSVLTVLHQDWLNGKEYKCKVSNKALPAPIEKTISKAKGQPREPQVYTLPPSRDELTKNQVSLTCLVKGFYPSDIAVEWESNGQPENNYKTTPPVLDSDGSFFLYSKLTVDKSRWQQGNVFSCSVMHEALHNHYTQKSLSLSPG

EC50 (CD2): 0.845 nM
EC50 (human TIGIT): 0.733 nM
B6: CD155 665-CD58 3650-Fc (Fc fusion)
chain: WPPPGTGDVVVQAPTQVSGFLGDSVTLPCYLQVPNMEVTHVSQLTWARHGESGSMAVFHQTQGPWYAESKRLEFVAARLGAELRNASLRVFGLRAEDEGNYTCQFVTFPQRSRSVDIWLRVLGGGGSGGGGSGGGGSSQQIYGVVYGNVTFHVPSNVPLKEVLWKKQKDKVAELENSEFRAFSSFKNRVYLDTVSGSLTIYNLTSSDEDEYEMESPNITDTMKFFLYVLESGSGGGGSEPKSSDKTHTCPPCPAPEAEGAPSVFLFPPKPKDTLMISRTPEVTCVVVDVSHEDPEVKFNWYVDGVEVHNAKTKPREEQYNSTYRVVSVLTVLHQDWLNGKEYKCKVSNKALPAPIEKTISKAKGQPREPQVYTLPPSRDELTKNQVSLTCLVKGFYPSDIAVEWESNGQPENNYKTTPPVLDSDGSFFLYSKLTVDKSRWQQGNVFSCSVMHEALHNHYTQKSLSLSPG

EC50 (human CD28 [3]): 3.39 nM
EC50 (human TIGIT): 2.3 nM
B7: CD155 665-ICOSL 2264-ICOSL 2264-CD155 665 (other)
chain: WPPPGTGDVVVQAPTQVSGFLGDSVTLPCYLQVPNMEVTHVSQLTWARHGESGSMAVFHQTQGPWYAESKRLEFVAARLGAELRNASLRVFGLRAEDEGNYTCQFVTFPQRSRSVDIWLRVLGGGGSGGGGTGGGGSDTQEKEVRAMVGSDVELSCACPEGSRFDLNDVYVYWQTSESKTVVTYHIPQHSSLEYVDSRYRNRALMSPAGMLRGDFSLRLFNVTPQDEQKFHCLVLSRSLGFQEVLSVEVTLHVAANFSVGGGGSGGGGSGGGGSDTQEKEVRAMVGSDVELSCACPEGSRFDLNDVYVYWQTSESKTVVTYHIPQHSSLEYVDSRYRNRALMSPAGMLRGDFSLRLFNVTPQDEQKFHCLVLSRSLGFQEVLSVEVTLHVAANFSVGSGGSGGGGSGGGGSWPPPGTGDVVVQAPTQVSGFLGDSVTLPCYLQVPNMEVTHVSQLTWARHGESGSMAVFHQTQGPWYAESKRLEFVAARLGAELRNASLRVFGLRAEDEGNYTCQFVTFPQRSRSVDIWLRVLGSGGGGSDYKDDDDKHHHHHH

MFI (human PD-1 [1]): 1520
MFI (human CTLA-4): 82.5
MFI (human CD28 [2]): 92.2
B8: CD80 2616-PD-L2 1417 (other)
chain: VIHVTKEVKEVATLSCGHNVSLEELAQTRIYWQKGKKMVLTMMSGDMNIWPEYKNRTIFDITNNLSIVILDPRPSDEGTYECVVLKYEKDAFKREHLAEVGSGGSGGGGSGGGGSLFTVTVPKELYIIEQGSNVTLECNFDTGSHVNLGAITASLQKVENDASPHRERATLLEEQLPLGRALFHIPQVQVRDEGQYRCIIIYGDAWDYKYLTLKVKADYKDDDDKHHHHHH

MFI (human PD-1 [1]): 1390
MFI (human CTLA-4): 75.5
MFI (human CD28 [2]): 110
B9: CD80 2617-PD-L2 1417 (other)
chain: B8 chain with L22V, K54E

MFI (human PD-1 [4]): 19900
B10: PD-L2 1417-IL16 (other)
chain: LFTVTVPKELYIIEQGSNVTLECNFDTGSHVNLGAITASLQKVENDASPHRERATLLEEQLPLGRALFHIPQVQVRDEGQYRCIIIYGDAWDYKYLTLKVKAGSGGSGGGGSGGGGSSAASASAASDVSVESTAEATVCTVTLEKMSAGLGFSLEGGKGSLHGDKPLTINRIFKGAASEQSETVQPGDEILQLGGTAMQGLTRFEAWNIIKALPDGPVTIVIRRKSLQSKETTAAGDSDYKDDDDKHHHHHH

EC50 (CD80): 3.8 nM
EC50 (human CD28 [3]): 4.15 nM
EC50 (human PD-1 [5]): 1.3 nM
EC50 (human TIGIT): 1.6 nM
B11: PD-L1 303-CD155 665-CTLA-4 3037-Fc (Fc fusion)
chain: FTVTVPKDLYVVEYGSNMTIECKFPVEKQLDLAALIVYWEMEGKDIIQFVHGEEDQKAQHSSYRQRARLLKDQLSLGNAALQITDVKLQDAGVYRCMISYGGGADYKRITVKVNAGGGGSGGGGSGGGGSWPPPGTGDVVVQAPTQVSGFLGDSVTLPCYLQVPNMEVTHVSQLTWARHGESGSMAVFHQTQGPWYAESKRLEFVAARLGAELRNASLRVFGLRAEDEGNYTCQFVTFPQRSRSVDIWLRVLGGGGSGGGGSGGGGSKAMHVAQPAVVFASSHGIASFVCEYASPWKATEVRVTVLRQADSQVTEVCAATYMTGNELTFLDDSICTGTSSGNQVNLTIQGLRAMDTGLYICKVEQMYPPPYLLGIGNGTQIYVIDPEPCPDSDGSGGGGSEPKSSDKTHTCPPCPAPEAEGAPSVFLFPPKPKDTLMISRTPEVTCVVVDVSHEDPEVKFNWYVDGVEVHNAKTKPREEQYNSTYRVVSVLTVLHQDWLNGKEYKCKVSNKALPAPIEKTISKAKGQPREPQVYTLPPSRDELTKNQVSLTCLVKGFYPSDIAVEWESNGQPENNYKTTPPVLDSDGSFFLYSKLTVDKSRWQQGNVFSCSVMHEALHNHYTQKSLSLSPG
